Results as given in patent US20240279288A1, “APPLICATION OF PLANT JAZ PROTEINS AND DERIVED POLYPEPTIDES IN PREVENTION AND TREATMENT OF HUMAN AND ANIMAL TUMORS” (ANYANG INSTITUTE OF SINO-COTTON INDUSTRY INNOVATION, priority 2021, published 2024).

Assays:
GhTPL = assay: Yeast two hybrid with GhTPL; type: binding, cotton
Description: The study on Arabidopsis had shown that the inhibition of JAZ protein on JA signaling was mainly achieved by inhibiting the transcription factor function of MYC, which had been experimentally verified by us in cotton. Based on the phylogenetic tree of Arabidopsis and cotton JAZs, we screened 6 cotton JAZs (GhJAZ1, GhJAZ7, GhJAZ9, GhJAZ10, GhJAZ11 and GhJAZ31), which were analyzed with GhMYC2, GhNINJA, GhTPL, GhHDA6, and GhCOI1 for yeast two hybrid. The amino acid sequence of GhJAZ1 was set forth in SEQ ID No. 4, and the corresponding encoding gene sequence was set forth in SEQ ID No. 39; the amino acid sequence of GhJAZ7 was set forth in SEQ ID No. 7, and the corresponding encoding gene sequence was set forth in SEQ ID No. 42; the amino acid sequence of GhJAZ9 was set forth in SEQ ID No. 2, and the corresponding encoding gene sequence was set forth in SEQ ID No. 37; the amino acid sequence of GhJAZ10 was set forth in SEQ ID No. 3, and the corresponding encoding gene sequence was set forth in SEQ ID No. 38; the amino acid sequence of GhJAZ11 was set forth in SEQ ID No. 5, and the corresponding encoding gene sequence was set forth in SEQ ID No. 40; and the amino acid sequence of GhJAZ31 was set forth in SEQ ID No. 9, and the corresponding encoding gene sequence was set forth in SEQ ID No. 44. The amino acid sequence of GhMYC2 was set forth in SEQ ID No. 71, and the corresponding encoding gene sequence was set forth in SEQ ID No. 72; the amino acid sequence of GhNINJA was set forth in SEQ ID No. 73, and the corresponding encoding gene sequence was set forth in SEQ ID No. 74; the amino acid sequence of GhTPL was set forth in SEQ ID No. 75, and the corresponding encoding gene sequence was set forth in SEQ ID No. 76; the amino acid sequence of GhHDA6 was set forth in SEQ ID No. 77, and the corresponding encoding gene sequence was set forth in SEQ ID No. 78; and the amino acid sequence of GhCOI1 was set forth in SEQ ID No. 79, and the corresponding encoding gene sequence was set forth in SEQ ID No. 80. […]

c-Myc = c-Myc (Homo sapiens, UniProt P01106); assay: Yeast two hybrid with c-Myc; type: binding; design: with the full length of c-Myc and NMYC, respectively; expressed in transfected cells; host or cells: yeast Y2HGold
Text: […]

c-Myc, sequence (P01106 whole entry): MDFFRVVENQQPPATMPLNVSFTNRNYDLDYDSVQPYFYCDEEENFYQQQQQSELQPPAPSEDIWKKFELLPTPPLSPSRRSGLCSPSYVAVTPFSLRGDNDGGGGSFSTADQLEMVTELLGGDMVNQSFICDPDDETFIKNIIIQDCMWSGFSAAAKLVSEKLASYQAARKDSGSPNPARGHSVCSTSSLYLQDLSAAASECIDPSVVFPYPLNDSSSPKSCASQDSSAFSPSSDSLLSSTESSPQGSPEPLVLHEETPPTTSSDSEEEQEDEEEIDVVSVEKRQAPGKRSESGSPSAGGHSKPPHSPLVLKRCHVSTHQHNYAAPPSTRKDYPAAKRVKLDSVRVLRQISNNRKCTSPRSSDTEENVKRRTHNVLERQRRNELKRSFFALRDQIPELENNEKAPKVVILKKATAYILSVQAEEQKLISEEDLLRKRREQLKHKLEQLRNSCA
GhTPL, sequence (as listed by the source): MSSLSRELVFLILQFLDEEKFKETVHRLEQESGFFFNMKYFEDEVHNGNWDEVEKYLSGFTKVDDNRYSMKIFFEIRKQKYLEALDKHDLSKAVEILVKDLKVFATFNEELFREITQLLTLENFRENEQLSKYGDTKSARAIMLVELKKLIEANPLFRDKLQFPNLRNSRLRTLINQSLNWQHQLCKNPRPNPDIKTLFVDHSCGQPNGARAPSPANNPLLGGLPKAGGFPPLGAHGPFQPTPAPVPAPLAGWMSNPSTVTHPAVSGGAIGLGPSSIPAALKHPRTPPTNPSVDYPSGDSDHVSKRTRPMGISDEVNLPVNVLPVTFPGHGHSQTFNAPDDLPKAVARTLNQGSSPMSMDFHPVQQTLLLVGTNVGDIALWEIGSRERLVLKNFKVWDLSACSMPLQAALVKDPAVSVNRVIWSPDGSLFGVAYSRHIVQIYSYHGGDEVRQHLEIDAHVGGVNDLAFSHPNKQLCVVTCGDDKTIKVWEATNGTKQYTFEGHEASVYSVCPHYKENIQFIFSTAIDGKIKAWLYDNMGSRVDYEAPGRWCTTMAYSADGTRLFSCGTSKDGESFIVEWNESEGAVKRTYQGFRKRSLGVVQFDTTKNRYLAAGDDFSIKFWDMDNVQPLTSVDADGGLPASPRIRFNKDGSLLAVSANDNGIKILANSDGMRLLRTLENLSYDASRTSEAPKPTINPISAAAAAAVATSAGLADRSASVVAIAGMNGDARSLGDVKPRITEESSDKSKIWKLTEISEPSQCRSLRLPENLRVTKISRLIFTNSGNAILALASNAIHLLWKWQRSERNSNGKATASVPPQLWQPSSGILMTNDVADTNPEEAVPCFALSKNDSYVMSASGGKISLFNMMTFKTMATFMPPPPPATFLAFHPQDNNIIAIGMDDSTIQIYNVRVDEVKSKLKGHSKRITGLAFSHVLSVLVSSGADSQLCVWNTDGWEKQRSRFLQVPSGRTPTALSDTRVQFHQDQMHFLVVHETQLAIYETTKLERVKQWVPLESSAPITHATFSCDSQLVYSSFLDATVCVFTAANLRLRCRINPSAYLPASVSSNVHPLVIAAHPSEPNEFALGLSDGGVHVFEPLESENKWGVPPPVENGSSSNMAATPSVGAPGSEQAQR

B1: GhJAZ1: cotton JAZ1 protein, gene number Gh_A05G0260, sequence SEQ ID No. 4; prokaryotically expressed with His tag, about 30 KD (protein)
chain: MSSCSESTAMKPARSPEKPSFAQTCNLLSQYLKEKGSFGDLSLGMTCNVEANGTPVVPPPTMNLFPLNDKSDDVCGRNGGNPKNLTSMDLFPQQAGLASKDDSPNKLEPQTAPMTIFYGGQVIVFNDFPANKAKEIMLLASNSSSQSNNSFNPIPFTSSIARSPIESSIGVPPTSKPVHPAQRAVPGDLPIARRASLHRFLEKRKDRITAKAPYQINNSAAAPSLSGDNKSWLGLAAQSP
modifications: His tag
notes: prokaryotically expressed with His tag, about 30 KD
In the case of B1, the “interaction with GhTPL” value (GhTPL) is reported as “interacted” and the “interaction with c-Myc” value (c-Myc) is reported as “interacted”.

B2: GhJAZ1 after deletion of NT domain: GhJAZ1 mutant with NT domain deleted, protein sequence SEQ ID No. 83 (protein)
chain: MSSCSESTAMKPARSPEANGTPVVPPPTMNLFPLNDKSDDVCGRNGGNPKNLTSMDLFPQQAGLASKDDSPNKLEPQTAPMTIFYGGQVIVFNDFPANKAKEIMLLASNSSSQSNNSFNPIPFTSSIARSPIESSIGVPPTSKPVHPAQRAVPGDLPIARRASLHRFLEKRKDRITAKAPYQINNSAAAPSLSGDNKSWLGLAAQSP
With B2 the “interaction with GhTPL” value (GhTPL) was “significantly weakened” and the “interaction with c-Myc” value (c-Myc) was “significantly weakened”.
